According to patent publication US11795460B2, “Compositions and methods for TTR gene editing and treating ATTR amyloidosis” (Intellia Therapeutics, Inc., priority 2017, dated 2023):
Strand notation (5' to 3'): a small letter for the sugar, then the base; units joined by * are phosphorothioate-linked, units joined directly phosphodiester-linked; [ ] holds rarer units or linkages, { } end groups; capitals alone tell only the bases. m = 2'-O-methyl; r = 2'-OH (RNA)

Test system: off-target genomic sites
Assay: Off-target oligo insertion based assay in HEK293_Cas9 cells, dgRNAs and sgRNAs (Tables 23, 24)
Type: cell-based, human
Settings: for # Sites (off-target integration sites detected): Table 24, TTR sgRNAs in HekCas9 cells, insertion detection method; for # Sites in HekCas9 cells (Example 5): Table 30, TTR sgRNAs, repeated from Example 5 for comparison
Protocol: An oligo insertion based assay (See, e.g., Tsai et al., Nature Biotechnology 33, 187-197; 2015) was used to determine potential off-target genomic sites cleaved by Cas9 targeting TTR. Forty-five dgRNAs from Table 1 (and two control guides with known off-target profiles) were screened in the HEK293 Cas9 cells. The human embryonic kidney adenocarcinoma cell line HEK293 constitutively expressing Spy Cas9 (“HEK293_Cas9”) was cultured in DMEM media supplemented with 10% fetal bovine serum and 500 μg/ml G418. Cells were plated at a density of 30,000 cells/well in a 96-well plate 24 hours prior to transfection. Cells were transfected with Lipofectamine RNAiMAX (ThermoFisher, Cat. 13778150) per the manufacturer's protocol. Cells were transfected with a lipoplex containing individual crRNA (15 nM), trRNA (15 nM), and donor oligo with (10 nM) Lipofectamine RNAiMAX (0.3 μL/well) and OptiMem. Cells were lysed 24 hours post transfection and genomic DNA was extracting using Zymo's Quick gDNA 96 Extraction kit (catalog #D3012) following the manufacturer's recommended protocol. The gDNA was quantified using the Qubit High Sensitivity dsDNA kit (Life Technologies). Libraries were prepared per the previously described method in Tsai et al, 2015 with minor modifications. Sequencing was performed on Illumina's MiSeq and HiSeq 2500. The assay identified potential off-target sites for some of the crRNAs which are plotted in FIG. 2.
Additionally, a subset of the guides was assessed for off-target potential as modified sgRNAs in the Hek_Cas9 cells via the oligo based insertion method described above. The off-target results were plotted in FIG. 4.

Molecule | # Sites (off-target integration sites detected) | # Sites in HekCas9 cells (Example 5)
G000490: TTR sgRNA modified sequence, Human, SEQ ID No. 97; guide sequence of CR003366 (nucleic acid) guide: mA*mA*mA*rUrArGrArCrArCrCrArArArUrCrUrUrArCrGrUrUrUrUrArGrAmGmCmUmAmGmAmAmAmUmAmGmCrArArGrUrUrArArArArUrArArGrGrCrUrArGrUrCrCrGrUrUrArUrCrAmAmCmUmUmGmAmAmAmAmAmGmUmGmGmCmAmCmCmGmAmGmUmCmGmGmUmGmCmU*mU*mU*mU | 12 | 12
G000571: TTR sgRNA modified sequence, Human, SEQ ID No. 112; guide sequence of CR005301 (nucleic acid) guide: mG*mU*mC*rArCrArGrArArArCrArCrUrCrArCrCrGrUrGrUrUrUrUrArGrAmGmCmUmAmGmAmAmAmUmAmGmCrArArGrUrUrArArArArUrArArGrGrCrUrArGrUrCrCrGrUrUrArUrCrAmAmCmUmUmGmAmAmAmAmAmGmUmGmGmCmAmCmCmGmAmGmUmCmGmGmUmGmCmU*mU*mU*mU | 16 | 16
G000496: TTR sgRNA modified sequence, Human, SEQ ID No. 103; guide sequence of CR005304 (nucleic acid) guide: mG*mG*mC*rCrGrUrGrCrArUrGrUrGrUrUrCrArGrArArGrUrUrUrUrArGrAmGmCmUmAmGmAmAmAmUmAmGmCrArArGrUrUrArArArArUrArArGrGrCrUrArGrUrCrCrGrUrUrArUrCrAmAmCmUmUmGmAmAmAmAmAmGmUmGmGmCmAmCmCmGmAmGmUmCmGmGmUmGmCmU*mU*mU*mU | 1 | 1
G000498: TTR sgRNA modified sequence, Human, SEQ ID No. 105; guide sequence of CR003359 (nucleic acid) guide: mA*mG*mU*rGrArGrUrCrUrGrGrArGrArGrCrUrGrCrArGrUrUrUrUrArGrAmGmCmUmAmGmAmAmAmUmAmGmCrArArGrUrUrArArArArUrArArGrGrCrUrArGrUrCrCrGrUrUrArUrCrAmAmCmUmUmGmAmAmAmAmAmGmUmGmGmCmAmCmCmGmAmGmUmCmGmGmUmGmCmU*mU*mU*mU | 82 | 82
G000500: TTR sgRNA modified sequence, Human, SEQ ID No. 107; guide sequence of CR003337 (nucleic acid) guide: mC*mC*mA*rGrUrCrCrArGrCrArArGrGrCrArGrArGrGrGrUrUrUrUrArGrAmGmCmUmAmGmAmAmAmUmAmGmCrArArGrUrUrArArArArUrArArGrGrCrUrArGrUrCrCrGrUrUrArUrCrAmAmCmUmUmGmAmAmAmAmAmGmUmGmGmCmAmCmCmGmAmGmUmCmGmGmUmGmCmU*mU*mU*mU | 46 | 46
G000492: TTR sgRNA modified sequence, Human, SEQ ID No. 99; guide sequence of CR003342 (nucleic acid) guide: mC*mU*mU*rCrUrCrUrArCrArCrCrCrArGrGrGrCrArCrGrUrUrUrUrArGrAmGmCmUmAmGmAmAmAmUmAmGmCrArArGrUrUrArArArArUrArArGrGrCrUrArGrUrCrCrGrUrUrArUrCrAmAmCmUmUmGmAmAmAmAmAmGmUmGmGmCmAmCmCmGmAmGmUmCmGmGmUmGmCmU*mU*mU*mU | 97 | 97
G000501: TTR sgRNA modified sequence, Human, SEQ ID No. 108; guide sequence of CR005300 (nucleic acid) guide: mU*mC*mA*rCrArGrArArArCrArCrUrCrArCrCrGrUrArGrUrUrUrUrArGrAmGmCmUmAmGmAmAmAmUmAmGmCrArArGrUrUrArArArArUrArArGrGrCrUrArGrUrCrCrGrUrUrArUrCrAmAmCmUmUmGmAmAmAmAmAmGmUmGmGmCmAmCmCmGmAmGmUmCmGmGmUmGmCmU*mU*mU*mU | 4 | 4
G000497: TTR sgRNA modified sequence, Human, SEQ ID No. 104; guide sequence of CR003335 (nucleic acid) guide: mC*mU*mG*rCrUrCrCrUrCrCrUrCrUrGrCrCrUrUrGrCrGrUrUrUrUrArGrAmGmCmUmAmGmAmAmAmUmAmGmCrArArGrUrUrArArArArUrArArGrGrCrUrArGrUrCrCrGrUrUrArUrCrAmAmCmUmUmGmAmAmAmAmAmGmUmGmGmCmAmCmCmGmAmGmUmCmGmGmUmGmCmU*mU*mU*mU | 26 | 26
G000484: TTR sgRNA modified sequence, Human, SEQ ID No. 91; guide sequence of CR003367 (nucleic acid) guide: mA*mG*mA*rCrArCrCrArArArUrCrUrUrArCrUrGrGrArGrUrUrUrUrArGrAmGmCmUmAmGmAmAmAmUmAmGmCrArArGrUrUrArArArArUrArArGrGrCrUrArGrUrCrCrGrUrUrArUrCrAmAmCmUmUmGmAmAmAmAmAmGmUmGmGmCmAmCmCmGmAmGmUmCmGmGmUmGmCmU*mU*mU*mU | 7 | 7
G000570: TTR sgRNA modified sequence, Human, SEQ ID No. 111; guide sequence of CR003347 (nucleic acid) guide: mC*mA*mU*rUrGrArUrGrGrCrArGrGrArCrUrGrCrCrUrGrUrUrUrUrArGrAmGmCmUmAmGmAmAmAmUmAmGmCrArArGrUrUrArArArArUrArArGrGrCrUrArGrUrCrCrGrUrUrArUrCrAmAmCmUmUmGmAmAmAmAmAmGmUmGmGmCmAmCmCmGmAmGmUmCmGmGmUmGmCmU*mU*mU*mU | 19 | 19
G000567: TTR sgRNA modified sequence, Human, SEQ ID No. 109; guide sequence of CR003352 (nucleic acid) guide: mG*mA*mA*rArGrGrCrUrGrCrUrGrArUrGrArCrArCrCrGrUrUrUrUrArGrAmGmCmUmAmGmAmAmAmUmAmGmCrArArGrUrUrArArArArUrArArGrGrCrUrArGrUrCrCrGrUrUrArUrCrAmAmCmUmUmGmAmAmAmAmAmGmUmGmGmCmAmCmCmGmAmGmUmCmGmGmUmGmCmU*mU*mU*mU | 9 | 9
G000487: TTR sgRNA modified sequence, Human, SEQ ID No. 94; guide sequence of CR003357 (nucleic acid) guide: mU*mU*mC*rUrUrUrGrGrCrArArCrUrUrArCrCrCrArGrGrUrUrUrUrArGrAmGmCmUmAmGmAmAmAmUmAmGmCrArArGrUrUrArArArArUrArArGrGrCrUrArGrUrCrCrGrUrUrArUrCrAmAmCmUmUmGmAmAmAmAmAmGmUmGmGmCmAmCmCmGmAmGmUmCmGmGmUmGmCmU*mU*mU*mU | 14 | 14
G000493: TTR sgRNA modified sequence, Human, SEQ ID No. 100; guide sequence of CR003368 (nucleic acid) guide: mA*mA*mG*rUrGrCrCrUrUrCrCrArGrUrArArGrArUrUrGrUrUrUrUrArGrAmGmCmUmAmGmAmAmAmUmAmGmCrArArGrUrUrArArArArUrArArGrGrCrUrArGrUrCrCrGrUrUrArUrCrAmAmCmUmUmGmAmAmAmAmAmGmUmGmGmCmAmCmCmGmAmGmUmCmGmGmUmGmCmU*mU*mU*mU | 7 | 7
G000495: TTR sgRNA modified sequence, Human, SEQ ID No. 102; guide sequence of CR003343 (nucleic acid) guide: mC*mA*mG*rArGrGrArCrArCrUrUrGrGrArUrUrCrArCrGrUrUrUrUrArGrAmGmCmUmAmGmAmAmAmUmAmGmCrArArGrUrUrArArArArUrArArGrGrCrUrArGrUrCrCrGrUrUrArUrCrAmAmCmUmUmGmAmAmAmAmAmGmUmGmGmCmAmCmCmGmAmGmUmCmGmGmUmGmCmU*mU*mU*mU | 13 | 13
G000483: TTR sgRNA modified sequence, Human, SEQ ID No. 90; guide sequence of CR005298 (nucleic acid) guide: mU*mC*mC*rArCrUrCrArUrUrCrUrUrGrGrCrArGrGrArGrUrUrUrUrArGrAmGmCmUmAmGmAmAmAmUmAmGmCrArArGrUrUrArArArArUrArArGrGrCrUrArGrUrCrCrGrUrUrArUrCrAmAmCmUmUmGmAmAmAmAmAmGmUmGmGmCmAmCmCmGmAmGmUmCmGmGmUmGmCmU*mU*mU*mU | 5 | 5
G000485: TTR sgRNA modified sequence, Human, SEQ ID No. 92; guide sequence of CR003336 (nucleic acid) guide: mC*mC*mU*rCrCrUrCrUrGrCrCrUrUrGrCrUrGrGrArCrGrUrUrUrUrArGrAmGmCmUmAmGmAmAmAmUmAmGmCrArArGrUrUrArArArArUrArArGrGrCrUrArGrUrCrCrGrUrUrArUrCrAmAmCmUmUmGmAmAmAmAmAmGmUmGmGmCmAmCmCmGmAmGmUmCmGmGmUmGmCmU*mU*mU*mU | 22 | 22
G000491: TTR sgRNA modified sequence, Human, SEQ ID No. 98; guide sequence of CR003338 (nucleic acid) guide: mA*mU*mA*rCrCrArGrUrCrCrArGrCrArArGrGrCrArGrGrUrUrUrUrArGrAmGmCmUmAmGmAmAmAmUmAmGmCrArArGrUrUrArArArArUrArArGrGrCrUrArGrUrCrCrGrUrUrArUrCrAmAmCmUmUmGmAmAmAmAmAmGmUmGmGmCmAmCmCmGmAmGmUmCmGmGmUmGmCmU*mU*mU*mU | 28 | 28
G000568: TTR sgRNA modified sequence, Human, SEQ ID No. 110; guide sequence of CR003391 (nucleic acid) guide: mG*mG*mC*rUrGrUrCrGrUrCrArCrCrArArUrCrCrCrArGrUrUrUrUrArGrAmGmCmUmAmGmAmAmAmUmAmGmCrArArGrUrUrArArArArUrArArGrGrCrUrArGrUrCrCrGrUrUrArUrCrAmAmCmUmUmGmAmAmAmAmAmGmUmGmGmCmAmCmCmGmAmGmUmCmGmGmUmGmCmU*mU*mU*mU | 937 | 936
